These results are taken from publication PMC10904899, “Protein engineering of transaminase facilitating enzyme cascade reaction for the biosynthesis of azasugars” (iScience, 2024).

For orientation: Km means the concentration of substrate that gives half-maximal velocity. For orientation: kcat means the number of substrate molecules converted per active site and unit of time at saturation. The kcat/Km is the second-order rate constant that governs catalysis at low substrate concentration.

The chains are these.
B1: MvTA (Mycolicibacterium vanbaalenii PYR-1) (protein)
chain: MGIDTGTSNLVAVEPGAIREDTPAGSVIQYSDYEIDYSSPFAGGVAWIEGEYLPAEDAKISIFDTGFGHSDLTYTVAHVWHGNIFRLGDHLDRLLDGARKLRLDSGYTKDELADITKKCVSLSQLRESFVNLTITRGYGKRKGEKDLSKLTHQVYIYAIPYLWAFPPAEQIFGTTAVVPRHVRRAGRNTVDPTIKNYQWGDLTAASFEAKDRGARTAILMDADNCVAEGPGFNVCIVKDGKLASPSRNALPGITRKTVFEIAGAMGIEAALRDVTSHELYDADEIMAVTTAGGVTPINTLDGVPIGDGEPGPVTVAIRDRFWALMDEPGPLIEAIQY
notes: homodimer; PLP on Lys195
B2: MvTA (Mycolicibacterium vanbaalenii PYR-1; A168E/H152N/H69R/K142P/K145R/L162I/R215G/S105P/S121M) (protein)
chain: MGIDTGTSNLVAVEPGAIREDTPAGSVIQYSDYEIDYSSPFAGGVAWIEGEYLPAEDAKISIFDTGFGRSDLTYTVAHVWHGNIFRLGDHLDRLLDGARKLRLDPGYTKDELADITKKCVMLSQLRESFVNLTITRGYGKRPGERDLSKLTNQVYIYAIPYIWAFPPEEQIFGTTAVVPRHVRRAGRNTVDPTIKNYQWGDLTAASFEAKDRGAGTAILMDADNCVAEGPGFNVCIVKDGKLASPSRNALPGITRKTVFEIAGAMGIEAALRDVTSHELYDADEIMAVTTAGGVTPINTLDGVPIGDGEPGPVTVAIRDRFWALMDEPGPLIEAIQY
notes: homodimer; PLP on Lys195
B3: MvTA (Mycolicibacterium vanbaalenii PYR-1; A168E/H152N/H69K/K142P/K145R/L162I/R215G/S105P/S121M) (protein)
chain: MGIDTGTSNLVAVEPGAIREDTPAGSVIQYSDYEIDYSSPFAGGVAWIEGEYLPAEDAKISIFDTGFGKSDLTYTVAHVWHGNIFRLGDHLDRLLDGARKLRLDPGYTKDELADITKKCVMLSQLRESFVNLTITRGYGKRPGERDLSKLTNQVYIYAIPYIWAFPPEEQIFGTTAVVPRHVRRAGRNTVDPTIKNYQWGDLTAASFEAKDRGAGTAILMDADNCVAEGPGFNVCIVKDGKLASPSRNALPGITRKTVFEIAGAMGIEAALRDVTSHELYDADEIMAVTTAGGVTPINTLDGVPIGDGEPGPVTVAIRDRFWALMDEPGPLIEAIQY
notes: homodimer; PLP on Lys195

Substrate in the series: C[C@@H](N)c1ccccc1
As to the kind of experiment: HPLC of acetophenone, nonlinear regression. The series is classed as biochemical, Mycolicibacterium austroafricanum. As to conditions: 20 mM D-fructose, 0.1 mM PLP, pH 6.0, 30°C. An excerpt:
HPLC of acetophenone, nonlinear regression on MvTA
For B1, the Km is on record as 0.71 mM, the turnover number (kcat) came to 0.0127 s⁻¹ and the specificity constant (kcat/Km) came to 17.8 M⁻¹ s⁻¹.
For the protein B2, the Michaelis constant (Km) is reported as 8.20 mM, the catalytic constant (kcat) was 0.65 s⁻¹ and the kcat/Km turned out to be 79.2 M⁻¹ s⁻¹.
In the same order, the values of B3 are 3.93 mM, 0.189 s⁻¹ and 48 M⁻¹ s⁻¹.
